The text below walks through data of patent US20230129258A1, “HETEROTANDEM BICYCLIC PEPTIDE COMPLEXES” (BicycleTx Limited, priority 2019, published 2023).

Starred links: 1 amine or outer side, 2 acyl side, 3 side chain; linkers in the order of their positions; H or OH if unused. Positions of bridges follow the written chain, without caps; N, C: chain ends. Non-standard residues stand in square brackets, D forms with d. Chains are numbered I, II in the order given. No end group written: not given here. *: point of attachment. TATA = O=C(CC[*:1])N1CN(C(=O)CC[*:2])CN(C(=O)CC[*:3])C1; Dip = N[C@H](C(=O)O)C(c1ccccc1)c1ccccc1; d1Nal = N[C@H](Cc1cccc2ccccc12)C(=O)O; Hyp = O=C(O)[C@@H]1C[C@@H](O)CN1; hArg = N=C(N)NCCCC[C@H](N)C(=O)O; tBuAla = CC(C)(C)C[C@H](N)C(=O)O; Cba = N[C@@H](CC1CCC1)C(=O)O; dK(PYA) = not defined here; NMeA = CN[C@@H](C)C(=O)O; Nle = CCCC[C@H](N)C(=O)O; Pent4ynoyl = C#CCCC(=O)*; Mpa = O=C(O)CCS

This assay has as its target CD137 on Jurkat reporter cells (Promega kit CS196005) (UniProt Q07011). The experiment in a line: cell-based or functional assay.

CD137 on Jurkat reporter cells (Promega kit CS196005), sequence (Q07011 24-255 limits assumed): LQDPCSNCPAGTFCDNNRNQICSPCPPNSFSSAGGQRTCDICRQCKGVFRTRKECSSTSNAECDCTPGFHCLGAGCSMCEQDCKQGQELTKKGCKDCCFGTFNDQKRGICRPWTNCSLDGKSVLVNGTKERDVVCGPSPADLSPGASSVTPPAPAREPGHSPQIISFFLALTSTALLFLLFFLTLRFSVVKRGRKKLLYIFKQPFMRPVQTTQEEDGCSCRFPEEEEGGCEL

B1: BCY13050 (peptide)
peptide 1: A[hArg]DC[Hyp][Cba]VNPLCLHP[dD]W[hArg]C
peptide 2: Ac-C[tBuAla]PE[dK](Pent4ynoyl)PYCFADPY[Nle]CA
modifications: linker I:4-I:11-I:18, II:1-II:8-II:15 via TATA; not fully specified (N-terminus, bridges); also: linker joins chain 1 to two chain 2 copies via PYA triazoles
On to B1, for which the EC50 (nM), PC3 co-culture is 0.09 nM and the Emax (fold induction over background), PC3 (fold over background) was found to be 42.5.

B2: BCY13138 (peptide)
peptide 1: A[hArg]DC[Hyp]LVNPLCLEP[dD]WTC
peptide 2: [Mpa][tBuAla]PE[dK(PYA)]PYCFADPY[Nle]C
modifications: linker I:4-I:11-I:18, II:1-II:8-II:15 via TATA (inferred); not fully specified (N-terminus); reading uncertain; also: linker joins chain 1 to two chain 2 copies via PYA triazoles
The molecule B2 displayed an EC50 (nM), PC3 co-culture of 0.17 nM and an Emax (fold induction over background), PC3 (fold over background) of 32.6.

B3: BCY12975 (peptide)
peptide 1: Ac-A[hArg]DC[Hyp]KVNPLCLHP[dD]W[hArg]C
peptide 2: Ac-C[tBuAla]PE[dK(PYA)]PYCFADPY[Nle]CA
modifications: linker I:4-I:11-I:18, II:1-II:8-II:15 via TATA; linker I:6-II:5 via N‑(acid-PEG3)‑N‑bis(PEG3-azide); reading uncertain; also: two CD137 bicycles per complex (EphA2:CD137 1:2)
B3: the EC50 (nM), PC3 co-culture came to 0.16 nM and the Emax (fold induction over background), PC3 (fold over background) came to 68.8.

B4: BCY13275 (peptide)
peptide 1: [NMeA][hArg]DC[Hyp]LVNPLCLHP[dD]W[hArg]C
peptide 2: Ac-C[tBuAla]PE[dK](Pent4ynoyl)PYCFADPY[Nle]CA
modifications: linker I:4-I:11-I:18, II:1-II:8-II:15 via TATA; not fully specified (N-terminus, bridges); also: linker joins chain 1 to two chain 2 copies via PYA triazoles
B4 yielded an EC50 (nM), PC3 co-culture of 0.08 nM and an Emax (fold induction over background), PC3 (fold over background) of 47.5.

B5: BCY12973 (peptide)
peptide 1: Ac-A[hArg]DC[Hyp]LVNPLCLHP[dD]W[hArg]CK
peptide 2: Ac-C[tBuAla]PE[dK(PYA)]PYCFADPY[Nle]CA
modifications: linker I:4-I:11-I:18, II:1-II:8-II:15 via TATA; linker I:19-II:5 via N‑(acid-PEG3)‑N‑bis(PEG3-azide); reading uncertain; also: two CD137 bicycles per complex (EphA2:CD137 1:2)
B5: the EC50 (nM), PC3 co-culture came to 0.16 nM and the Emax (fold induction over background), PC3 (fold over background) is 48.6.

B6: BCY12979 (peptide)
peptide 1: A[hArg]DC[Hyp]LVNPLCLHP[dD]W[hArg]C
peptide 2: Ac-C[tBuAla]PE[dK(PYA)]PYCFADPY[Nle]CA
modifications: linker I:4-I:11-I:18, II:1-II:8-II:15 via TATA; not fully specified (bridges); reading uncertain; also: two CD137 bicycles per complex (EphA2:CD137 1:2)
In the case of B6, the EC50 (nM), PC3 co-culture came to 0.08 nM and the Emax (fold induction over background), PC3 (fold over background) stood at 71.6.

B7: BCY13052 (peptide)
peptide 1: [dA][hArg]DC[Hyp][Cba]VNPLCLEP[dD]WTC[dA]
peptide 2: Ac-C[tBuAla]PE[dK](Pent4ynoyl)PYCFADPY[Nle]CA
modifications: linker I:4-I:11-I:18, II:1-II:8-II:15 via TATA (inferred); not fully specified (N-terminus); also: chain 2: linker at dLys(PYA)4 (place not given here by letters), linker N-(acid-PEG3)-N-bis(PEG3-azide) joins N-terminus of chain 1 to dLys(PYA) of chain 2
The molecule B7 yielded an EC50 (nM), PC3 co-culture of 0.21 nM and an Emax (fold induction over background), PC3 (fold over background) of 32.9.

B8: BCY13047 (peptide)
peptide 1: A[hArg]DC[Hyp]LVNPLCL[Dip]P[dD]WTC
peptide 2: Ac-C[tBuAla]PE[dK(PYA)]PYCFADPY[Nle]CA
modifications: linker I:4-I:11-I:18, II:1-II:8-II:15 via TATA; not fully specified (N-terminus, bridges); reading uncertain; also: two CD137 bicycles per complex (EphA2:CD137 1:2)
For B8, the EC50 (nM), PC3 co-culture is 0.07 nM and the Emax (fold induction over background), PC3 (fold over background) came out at 46.4.

B9: BCY13054 (peptide)
peptide 1: A[hArg]DC[Hyp]LVNPLCL[Dip]P[dD]W[hArg]C
peptide 2: Ac-C[tBuAla]PE[dK](Pent4ynoyl)PYCFADPY[Nle]CA
modifications: linker I:4-I:11-I:18, II:1-II:8-II:15 via TATA; not fully specified (N-terminus, bridges); also: linker joins chain 1 to two chain 2 copies via PYA triazoles
B9 came in with an EC50 (nM), PC3 co-culture of 0.07 nM and an Emax (fold induction over background), PC3 (fold over background) of 36.5.

B10: BCY13139 (peptide)
peptide 1: A[hArg]DC[Hyp]LVNPLCLHP[dD]W[hArg]C
peptide 2: [Mpa][tBuAla]EE[dK](Pent4ynoyl)PYCFADPY[Nle]C
modifications: linker I:4-I:11-I:18, II:1-II:8-II:15 via TATA; not fully specified (N-terminus); also: linker joins chain 1 to two chain 2 copies via PYA triazoles
Molecule B10 displayed an EC50 (nM), PC3 co-culture of 0.16 nM and an Emax (fold induction over background), PC3 (fold over background) of 43.8.

B11: BCY14335 (peptide)
peptide 1: {Palmitoyl‑Glu‑LysN3-Pent4ynoyl}-A[hArg]DC[Hyp]LVNPLCLKP[dD]W[hArg]C
peptide 2: Ac-C[tBuAla]PE[dK](Pent4ynoyl)PYCFADPY[Nle]CA
modifications: linker I:4-I:11-I:18, II:1-II:8-II:15 via TATA (inferred); not fully specified; also: 1:2 complex: chain 1 Lys ('Lys 8') joined to dLys(PYA)5 of two chain 2 copies via N-(acid-PEG3)-N-bis(PEG3-azide) linker
For B11, the Fold Improvement over BCY9173, EC50, PC3 worked out at 7.14 fold and the Fold Improvement over Emax (BCY9173), PC3 came out at 0.94 fold.

B12: BCY12976 (peptide)
peptide 1: Ac-A[hArg]DC[Hyp]LVNPLCKHP[dD]W[hArg]C
peptide 2: Ac-C[tBuAla]PE[dK(PYA)]PYCFADPY[Nle]CA
modifications: linker I:4-I:11-I:18, II:1-II:8-II:15 via TATA; linker I:12-II:5 via N‑(acid-PEG3)‑N‑bis(PEG3-azide); reading uncertain; also: two CD137 bicycles per complex (EphA2:CD137 1:2)
Turning to B12, the EC50 (nM), PC3 co-culture was determined as 0.18 nM and the Emax (fold induction over background), PC3 (fold over background) is 73.2.

B13: BCY13140 (peptide)
peptide 1: A[hArg]DC[Hyp]LVNPLCLEP[dD]WTC
peptide 2: [Mpa][tBuAla]EE[dK](Pent4ynoyl)PYCFADPY[Nle]C
modifications: linker I:4-I:11-I:18, II:1-II:8-II:15 via TATA; not fully specified (N-terminus); also: linker joins chain 1 to two chain 2 copies via PYA triazoles
For the molecule B13, the EC50 (nM), PC3 co-culture came out at 0.12 nM and the Emax (fold induction over background), PC3 (fold over background) stood at 46.7.

B14: BCY13270 (peptide)
peptide 1: A[hArg]DC[Hyp]LVNPLCLHP[d1Nal]W[hArg]C
peptide 2: Ac-C[tBuAla]PE[dK](Pent4ynoyl)PYCFADPY[Nle]CA
modifications: linker I:4-I:11-I:18, II:1-II:8-II:15 via TATA; not fully specified (N-terminus, bridges); also: linker joins chain 1 to two chain 2 copies via PYA triazoles
Take B14: the EC50 (nM), PC3 co-culture was determined as 0.1 nM and the Emax (fold induction over background), PC3 (fold over background) came out at 42.5.

B15: BCY14334 (peptide)
peptide 1: A[hArg]DC[Hyp]LVNPLCLKP[dD]W[hArg]C
peptide 2: Ac-C[tBuAla]PE[dK](Pent4ynoyl)PYCFADPY[Nle]CA
modifications: linker I:4-I:11-I:18 via TATA; linker II:1-II:8-II:15 via TATA (inferred); not fully specified (some residues); also: N-(acid-PEG3)-N-bis(PEG3-azide) linker at chain 1 N-terminus, joined to dLys(PYA)4 of two BCY8928 chains (1:2 complex)
With B15, the Fold Improvement over BCY9173, EC50, PC3 was found to be 7.21 fold and the Fold Improvement over Emax (BCY9173), PC3 came out at 1.62 fold.

B16: BCY13051 (peptide)
peptide 1: A[hArg]DC[Hyp][Cba]VNPLCLEP[dD]WTC
peptide 2: Ac-C[tBuAla]PE[dK](Pent4ynoyl)PYCFADPY[Nle]CA
modifications: linker I:4-I:11-I:18, II:1-II:8-II:15 via TATA; not fully specified (N-terminus, bridges); also: linker joins chain 1 to two chain 2 copies via PYA triazoles
With B16, the EC50 (nM), PC3 co-culture stood at 0.21 nM and the Emax (fold induction over background), PC3 (fold over background) stood at 37.

B17: BCY12977 (peptide)
peptide 1: A[hArg]DC[Hyp]LVNPLCLHP[dE]W[hArg]C
peptide 2: Ac-C[tBuAla]PE[dK(PYA)]PYCFADPY[Nle]CA
modifications: linker I:4-I:11-I:18, II:1-II:8-II:15 via TATA; linker II:N-II:5 via N‑(acid-PEG3)‑N‑bis(PEG3-azide); reading uncertain; also: two CD137 bicycles per complex (EphA2:CD137 1:2)
B17: the EC50 (nM), PC3 co-culture is 0.08 nM and the Emax (fold induction over background), PC3 (fold over background) was determined as 67.2.
